What was measured:
[1] = molecular target: 22-mer tyrosine-sulfated biotinylated N-terminal CCR5 peptide; experiment: SPR; qualitative; ~5000 RU of biotinylated CCR5 peptide on an SA chip; 100 nM gp120 proteins injected at 10 µl/min, alone or pre-incubated with 2-fold molar excess of sCD4; 25°C; HBS-EP buffer; compared at time = 300 s
[2] = molecular target: wild-type SF162 gp140 (cleavage-defective) (HIV-1 SF162); experiment: not stated; oligomeric state of the purified glycoproteins; method not given
soluble CD4 (sCD4) = soluble CD4 (sCD4) (UniProt P01730); experiment: SPR; BIAcore 3000; ~200 RU of sCD4 or mAb immobilised directly on a CM5 chip via amine coupling; varying concentrations of gp120 injected at 80 µl/min; 25°C; HBS-EP buffer; 1:1 Langmuir fit

Substance: gp120+sCD4 (sCD4-liganded, wild-type gp120) (from UniProt P01730) (complex)
- fold better binding than gp120 [1]: > 10 fold

Substance: wild-type SF162 gp140 (cleavage-defective) (natural protein)
- stoichiometry N [2]: 3

Substance: wild-type SF162 gp120 (natural protein)
- Kd (soluble CD4 (sCD4)): 0.0245 µM

— PMC3797752
